Data published in publication PMC4914113, “Another look at the mechanism involving trimeric dUTPases in Staphylococcus aureus pathogenicity island induction involves novel players in the party” (Nucleic Acids Research, 2016).
pKd: −log10 of the molar value.

How the values were obtained:
[1] = biological target: Dut80α^F165A (Staphylococcus aureus phage 80α); assay: BLI; as a1, buffer STL supplemented with 0.5 mM dUPNPP (baselines and dissociation without nucleotide); 1:1 model
[2] = biological target: Dut80α^ΔV, Dut80α motif V deletion mutant (Staphylococcus aureus phage 80α); assay: as above
[3] = biological target: Dut80α^Y84I (Staphylococcus aureus phage 80α); assay: as above
[4] = biological target: Dutϕ11^WT, wild-type dUTPase of phage ϕ11 (Staphylococcus aureus phage ϕ11); assay: as above
[5] = biological target: Dut80α^ΔVI, Dut80α lacking motif VI (Staphylococcus aureus phage 80α); assay: as above
[6] = biological target: Dutϕ11^(ΔVI F164A) (Staphylococcus aureus phage ϕ11); assay: as above
[7] = biological target: Dutϕ11^ΔVI, Dutϕ11 lacking motif VI (Staphylococcus aureus phage ϕ11); assay: as above
[8] = biological target: Dutϕ11^ΔV-ΔVI (Staphylococcus aureus phage ϕ11); assay: as above
[9] = biological target: Dut80α^D81A (Staphylococcus aureus phage 80α); assay: as above
[10] = biological target: Dut80α D81A D110C S168C (Staphylococcus aureus phage 80α); assay: as above
[11] = biological target: Dut80α^WT, wild-type dUTPase of phage 80α (Staphylococcus aureus phage 80α); assay: as above
[12] = biological target: Dutϕ11^ΔV, Dutϕ11 motif V deletion mutant (Staphylococcus aureus phage ϕ11); assay: as above
[13] = biological target: Dut80α^F165A (Staphylococcus aureus phage 80α); assay: BLI; BLItz; His-tagged Dut immobilised at 1 μM on Ni-NTA biosensors, Stl in solution (at least five dilutions, 4 to 0.062 μM); buffer STL (400 mM NaCl, 75 mM HEPES pH 7.5, 5 mM MgCl2, 2 mM DTT); no nucleotide; 1:1 model
[14] = biological target: Dutϕ11^WT, wild-type dUTPase of phage ϕ11 (Staphylococcus aureus phage ϕ11); assay: as above
[15] = biological target: Dut80α^G164S (Staphylococcus aureus phage 80α); assay: as above
[16] = biological target: Dutϕ11^ΔVI, Dutϕ11 lacking motif VI (Staphylococcus aureus phage ϕ11); assay: as above
[17] = biological target: Dutϕ11^ΔVI-IV-80α (Staphylococcus aureus phage ϕ11); assay: as above
[18] = biological target: Dutϕ11^ΔV, Dutϕ11 motif V deletion mutant (Staphylococcus aureus phage ϕ11); assay: as above
[19] = biological target: Dut80α D81A D110C S168C (Staphylococcus aureus phage 80α); assay: BLI; as a1 but non-reducing buffer (400 mM NaCl, 75 mM HEPES pH 7.5, 5 mM MgCl2) with 0.5 mM dUPNPP; 1:1 model

Stl repressor from SaPIbov1 (natural protein)
pKd [1]: < 6.00 | pKd [2]: 6.28 | koff [2]: 0.0042 s⁻¹ | kon [2]: 8000 M⁻¹ s⁻¹ | pKd [3]: < 6.00 | pKd [4]: 6.52 | koff [4]: 0.0006 s⁻¹ | kon [4]: 2000 M⁻¹ s⁻¹ | pKd [5]: < 6.00 | pKd [6]: 6.42 | koff [6]: 0.0031 s⁻¹ | kon [6]: 8200 M⁻¹ s⁻¹ | pKd [7]: 7.90 | koff [7]: 0.00014 s⁻¹ | kon [7]: 11000 M⁻¹ s⁻¹ | pKd [8]: 6.70 | koff [8]: 0.0019 s⁻¹ | kon [8]: 9500 M⁻¹ s⁻¹ | pKd [9]: < 6.00 | pKd [10]: 6.72 | koff [10]: 0.005 s⁻¹ | kon [10]: 26000 M⁻¹ s⁻¹ | pKd [11]: 6.33 | koff [11]: 0.0014 s⁻¹ | kon [11]: 3000 M⁻¹ s⁻¹ | pKd [12]: 8.42 | koff [12]: 5e-05 s⁻¹ | kon [12]: 13000 M⁻¹ s⁻¹ | pKd [13]: 6.24 | koff [13]: 0.0157 s⁻¹ | kon [13]: 27000 M⁻¹ s⁻¹ | pKd [14]: 8.74 | koff [14]: 9.2e-05 s⁻¹ | kon [14]: 50000 M⁻¹ s⁻¹ | pKd [15]: 6.81 | koff [15]: 0.0047 s⁻¹ | kon [15]: 30000 M⁻¹ s⁻¹ | pKd [16]: 7.94 | koff [16]: 0.00024 s⁻¹ | kon [16]: 21000 M⁻¹ s⁻¹ | pKd [17]: < 6.00 | pKd [18]: 8.85 | koff [18]: 4e-05 s⁻¹ | kon [18]: 28000 M⁻¹ s⁻¹ | pKd [19]: 7.71 | koff [19]: 0.0011 s⁻¹ | kon [19]: 57000 M⁻¹ s⁻¹
